The test system of series [1] is O=C(O)c1ccccc1[N+](=O)[O-]. Put plainly: purified protein, by the assay type. Particulars: other: cofactor NADH; enzyme 1 uM.
In series [2] the test system is O=[N+]([O-])c1ccc(CO)cc1. The experiment in a line: purified protein, by the assay type. Particulars: other: cofactor NADH; enzyme 1 uM.

Take “Enterobacter cloacae nitroreductase (EntNFSB) variant EntNFSB-s1, S40A/T41I/F124A, SEQ ID NO: 38 (Enterobacter cloacae; F124A/S40A/T41I)”: the Km in series [1] was 4.05 mM. With “Enterobacter cloacae nitroreductase (EntNFSB), wild type, SEQ ID NO: 37 (Enterobacter cloacae)”, in series [2], the Km was 9.52 mM mM and the kcat is 8.76 min-1 min-1.

These data come from US20210277441A1, “METHOD OF SELECTING A POLYPEPTIDE OF INTEREST” (IMPERIAL COLLEGE INNOVATIONS LIMITED, priority 2018, published 2021).
